Experimental data from US9931401B2, “Combination comprising anti-fibroblast growth factor receptor 2 (FGFR2) antibody and a tyrosine kinase inhibitor” (Daiichi Sankyo Company, Limited, priority 2013, dated 2018).

Experiments:
human FGFR2 IIIb = molecular target: T1, human FGFR2 IIIb (Homo sapiens, UniProt P21802); assay: Elk1 luciferase reporter gene assay, FGFR2 IIIb-expressing 293α cells, ligand FGF7; assay type: cell-based; conditions: FGF7 10 ng/ml; for ligand FGF7 dependent reporter activation in the FGFR2 IIIb-expressing cells: antibody preincubated 1 hour, 6 hours; for ligand FGF7 dependent reporter activation in FGFR2-expressing HEK293 reporter cells (screening): hybridoma culture supernatant diluted 5-fold
T1 construct: expressed in transfected cells; host or cells: 293α cells (HEK293 stably transfected with integrin αv and β3)
T1 sequence (P21802 22-822 isoform P21802-3 limits assumed): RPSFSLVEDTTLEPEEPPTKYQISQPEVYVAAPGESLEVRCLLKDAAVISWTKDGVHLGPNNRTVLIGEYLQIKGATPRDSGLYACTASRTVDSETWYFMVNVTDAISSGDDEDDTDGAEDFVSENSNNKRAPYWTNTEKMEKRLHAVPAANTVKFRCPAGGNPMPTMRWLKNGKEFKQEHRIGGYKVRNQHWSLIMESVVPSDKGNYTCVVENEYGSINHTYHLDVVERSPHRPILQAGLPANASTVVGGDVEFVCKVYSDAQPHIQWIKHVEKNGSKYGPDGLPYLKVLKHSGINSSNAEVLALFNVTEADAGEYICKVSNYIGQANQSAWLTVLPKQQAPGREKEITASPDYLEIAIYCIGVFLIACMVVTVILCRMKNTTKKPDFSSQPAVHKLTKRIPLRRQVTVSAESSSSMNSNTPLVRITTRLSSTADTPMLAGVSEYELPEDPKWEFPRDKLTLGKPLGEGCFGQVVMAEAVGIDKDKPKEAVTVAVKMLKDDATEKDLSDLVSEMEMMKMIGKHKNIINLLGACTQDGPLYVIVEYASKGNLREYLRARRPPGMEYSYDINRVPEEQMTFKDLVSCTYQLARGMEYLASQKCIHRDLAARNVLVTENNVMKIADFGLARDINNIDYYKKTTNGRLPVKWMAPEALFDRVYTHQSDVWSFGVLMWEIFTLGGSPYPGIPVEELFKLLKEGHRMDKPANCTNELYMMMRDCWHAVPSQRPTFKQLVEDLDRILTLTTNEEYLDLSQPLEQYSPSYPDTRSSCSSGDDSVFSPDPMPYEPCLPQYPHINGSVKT
Procedure: In order to evaluate the signal-neutralizing effect of the anti-FGFR2 antibody produced by each obtained hybridoma, an Elk1 luciferase reporter gene assay system for detecting ERK (extracellular signal-regulated kinase) activation induced by FGFR2 activation via ligand FGF7 stimulation was constructed by a method shown below and used in the evaluation of the obtained antibody for its effect.
The Elk1 luciferase reporter gene assay was carried out using each hybridoma culture supernatant selected in Example 1)-5. A cell line 293α, which was HEK293 cells stably transfected with integrin αv and integrin β3 expression vectors, was transiently cotransfected with pcDNA-DEST40-FGFR2 IIIb or pcDNA-DEST40, pFA2-Elk1 (manufactured by Stratagene Corp.), pFR-Luc2CP, and pGL4.74[hRluc/TK] (manufactured by Promega Corp.) according to transfection procedures using Lipofectamine 2000 (manufactured by Invitrogen Corp.), inoculated to a white 96-well cell culture plate (manufactured by Corning Inc.), and cultured overnight at 37° C. under 5% CO2 conditions. On the next day, the culture supernatant was removed, and the hybridoma culture supernatant diluted 5-fold with DMEM containing 5% FBS was added at a concentration of 50 μl/well to the plate. After culture at 37° C. for 1 hour under 5% CO2 conditions, a ligand human FGF7 (manufactured by R&D systems, Inc.) was added at a final concentration of 10 ng/ml to each well. After incubation for 6 hours, cell lysates were prepared and assayed for firefly luciferase activity (specific signal) and Renilla luciferase activity (signal for normalization) using Dual-luciferase reporter assay system (manufactured by Promega Corp.). The firefly/Renilla ratio was calculated to normalize data on each well.
In order to evaluate the signal-neutralizing effects of the obtained antibodies by the Elk1 luciferase reporter gene assay, 293α cells were cotransfected with pcDNA-DEST40-FGFR2 IIIb or pcDNA-DEST40-FGFR2 IIIc constructed in Example 1)-3-1, pFA2-Elk1 (manufactured by Stratagene Corp.), pFR-Luc2CP, and pGL4.74[hRluc/TK] (manufactured by Promega Corp.) by the method shown in Example 1)-6-2, and cultured overnight at 37° C. under 5% CO2 conditions. On the next day, the culture supernatant was removed, and the cells were then preincubated for 1 hour with the rat FR2-10, FR2-13, or FR2-14 antibody diluted with DMEM containing 2% FBS. Subsequently, a ligand human FGF7 (manufactured by R&D systems, Inc.) or human FGF9 (manufactured by PeproTech Inc.) was added at a final concentration of 10 ng/ml to each well. After incubation for 6 hours, firefly luciferase activity (specific signal) and Renilla luciferase activity (signal for normalization) were assayed using Dual-Glo Luciferase Assay System (manufactured by Promega Corp.). The firefly/Renilla ratio was calculated to normalize data on each well.
In order to evaluate the signal-neutralizing effects of the obtained antibodies by the Elk1 luciferase reporter gene assay, 293α cells were transfected with pcDNA-DEST40-FGFR2 IIIb or pcDNA-DEST40-FGFR2 IIIc constructed in Example 1)-3-1 by the method shown in Example 1)-6-2, and cultured overnight at 37° C. under 5% CO2 conditions. On the next day, the culture supernatant was removed, and the cells were then preincubated for 1 hour with the cFR2-10, cFR2-13, or cFR2-14 antibody (final concentration: 0.05 to 5 μg/ml) diluted with DMEM containing 2% FBS. Subsequently, a ligand human FGF7 (manufactured by R&D systems, Inc.) or human FGF9 (manufactured by PeproTech Inc.) was added at a final concentration of 10 ng/ml to each well. After incubation for 6 hours, cell lysates were prepared and assayed for firefly luciferase activity (specific signal) and Renilla luciferase activity (signal for normalization) using Dual-luciferase reporter assay system (manufactured by Promega Corp.). The firefly/Renilla ratio was calculated to normalize data on each well. […]

human FGFR2 = molecular target: T2, human FGFR2 (Homo sapiens, UniProt P21802); assay: Flow cytometry, selective binding to human FGFR expression vector-transfected HEK293T cells; conditions: hybridoma culture supernatant, FGFR1 IIIc, FGFR2 IIIb, FGFR3 IIIb, FGFR4 transfectants
T2 construct: expressed in transfected cells; host or cells: HEK293T cells
T2 sequence (P21802 22-822 isoform P21802-3): as the sequence (P21802 22-822 isoform P21802-3 limits assumed) above
Procedure: HEK293T cells were inoculated at a density of 5×10^4 cells/cm^2 to a 225-cm^2 flask (manufactured by Sumitomo Bakelite Co., Ltd.) and cultured overnight at 37° C. under 5% CO2 conditions in a DMEM medium containing 10% FBS. On the next day, the pcDNA-DEST40-FGFR2 IIIb IgD1-deletion mutant deficient in the N-terminal IgD1 domain or a control pcDNA-DEST40 was transfected to the HEK293T cells using Lipofectamine 2000, and the cells were further cultured overnight at 37° C. under 5% CO2 conditions. On the next day, the expression vector-transfected HEK293T cells were treated with TrypLE Express (manufactured by Life Technologies Corp.), washed with DMEM containing 10% FBS, and then suspended in PBS containing 5% FBS. The obtained cell suspension was used in flow cytometry analysis.
cDNAs encoding a human FGFR1 IIIc variant protein (isoform 1: NP_075598), a human FGFR3 IIIb variant protein (isoform 3: NP_001156685), a human FGFR3 IIIc variant protein (isoform 1: NP_000133), and a human FGFR4 protein (isoform 1: NP_002002) were cloned into pcDNA-DEST40 vectors to construct vectors pcDNA-DEST40-FGFR1 IIIc, pcDNA-DEST40-FGFR3 IIIb, pcDNA-DEST40-FGFR3 IIIc, and pcDNA-DEST40-FGFR4 for expression of each variant protein, respectively.
Each human FGFR expression vector constructed in Examples 1)-3-1 and 2)-1-1 was transfected to HEK293T cells by the method shown in Example 1)-5-1. The cell suspension was centrifuged to remove the supernatant. Then, these various human FGFR expression vector-transfected HEK293T cells and the pcDNA-DEST40-transfected HEK293T cells were separately suspended by the addition of the hybridoma culture supernatant containing the FR2-10, FR2-13, or FR2-14 antibody and left standing at 4° C. for 1 hour. […] The data was analyzed using Flowjo (manufactured by Tree Star Inc.). After removal of 7-aminoactinomycin D-positive dead cells by gating, the FITC fluorescence intensity of live cells was plotted to a histogram to calculate average fluorescence intensity (MFI).

Row | Molecule | ligand FGF7 dependent reporter activation in the FGFR2 IIIb-expressing cells (human FGFR2 IIIb) | ligand FGF7 dependent reporter activation in FGFR2-expressing HEK293 reporter cells (screening) (human FGFR2 IIIb) | selective binding activity against human FGFR2 (human FGFR2)
1 | FR2-13: anti-human FGFR2 rat monoclonal antibody obtained by the method described in Example 1; VH SEQ ID NO: 14, VL SEQ ID NO: 24 (antibody, listed as Rattus norvegicus, V domains shown) VH: QVKLLQSGAELVKPGASVKLSCKTSGFTFSTSYMSWLKQVPGPSIEWIGWIYAGDGGTKYNQKFKGKATLTVDKSSSTAYMDLSSLTSEDAAVYFCATDGYGDWFAYWGQGTLVTVSS VL: DIQMTQSPASLSASLGETVTIECRASEDIYSNLAWYQQKPGNSPQLLIYDANILADGVPSRFSGSGSGTQYSLKINSLQSEDVASYFCQQYNNYPPFTFGVGTKLELKRA | inhibited | reduced ligand FGF7 dependent reporter activation to a ligand-free level | selectively bind to both human FGFR2 IIIb and FGFR2 IIIc
2 | FR2-14: anti-human FGFR2 rat monoclonal antibody obtained by the method described in Example 1; VH SEQ ID NO: 16, VL SEQ ID NO: 26 (antibody, listed as Rattus norvegicus, V domains shown) VH: QVKLLQSGAELVKPGASVKLSCKTSGFTFSTSYMSWLKQVPGPSTEWIGWIYAGDGGTKYNQKFKGKATLTVDKFSSTAYMDLSSLTSEDAAVYFCATDGYGDWFTYWGQGTLVTVSS VL: DIQMTQSPASLSASLGETVTIECRASEDIYSNLAWYQQKPGNSPQLLIYDANILADGVPSRFSGSGSGTQYSLKINSLQSEDVASYFCQQYNNYPPFTFGAGTKLELKRA | inhibited | reduced ligand FGF7 dependent reporter activation to a ligand-free level | selectively bind to both human FGFR2 IIIb and FGFR2 IIIc
3 | FR2-10: anti-human FGFR2 rat monoclonal antibody obtained by the method described in Example 1; VH SEQ ID NO: 12, VL SEQ ID NO: 21 (antibody, listed as Rattus norvegicus, V domains shown) VH: EVQLVESGGGLVQPGRSLKLSCVASGFRFNDFWMTWIRQAPGKGLEWVASITYTGDNTYYAGSVKGRITISRDNAKSTLYLQMNSLRSEDTATYYCTRDDYGGYSPYYMDAWGQGTSVTVSS VL: DIQMTQSPSSLSAFLGDRVTITCRASQDIGNYLRWFQQKPGKSPRLMIYGATNLANGVPSRFSGSRSGSDYSLTINNLESEDMAIYYCLKHNEYPFTFGSGTKLEIKRA | inhibited | reduced ligand FGF7 dependent reporter activation to a ligand-free level | selectively bind to human FGFR2 IIIb
